Test results: PMC5515574

Columns and labels:
[1] = molecular target: mutant T238V yeast αβ-tubulin (T238V in Tub2p, β-tubulin) (yeast (S. cerevisiae)) (UniProt P09733); test: laser trap plucking force assay; bead tethered by a single anti-His antibody to the His6 tag of β-tubulin at the growing end of a coverslip-anchored microtubule; force ramp 0.25 pN s^-1 until detachment; only detachments followed at once by disassembly counted; removal of tubulin dimers from the microtubule end
[2] = molecular target: wild-type yeast αβ-tubulin with a His6 tag fused to the C-terminus of β-tubulin (yeast (S. cerevisiae)) (UniProt P09733); test: as above

Row | plucking force [1] [pN] | plucking force [2] [pN] | Substance
1 | 19 | – | mutant T238V yeast αβ-tubulin (T238V in Tub2p, β-tubulin) (from UniProt P09733 1-447; P02557 1-457) (complex)
2 | – | 8.3 | wild-type yeast αβ-tubulin with a His6 tag fused to the C-terminus of β-tubulin (from UniProt P09733 1-447; P02557 1-457) (complex)
